Data: US9683217B2, “In vitro culture conditions for T-cell acute lymphoblastic leukemia/lymphoma” (THE UNIVERSITY OF MIAMI, priority 2013, dated 2017)

Tests used:
[1] = system: human T-ALL lymphoblasts; assay: Cytokine/growth factor subtraction and IGF1R blockade, resazurin-reduction cell growth assay; format: cell-based; conditions: for importance of the supplemental cytokine for T-ALL growth: SCF, IGF-1, IL-2, IL-7 added alone or in combination, FIG. 3
Protocol: A resazurin-reduction cell growth assay was performed on (A-B) primary and (C) xenograft-expanded T-ALL. Cells were cultured and passaged as described in FIG. 1. Cytokines and growth factors were subtracted out of the complete media and cells were assayed for growth using a resazurin reduction assay. […] Significance: * p<0.05, ** p<0.01, and *** p<0.001.
Cell Titer Blue (Promega) was added to a co-culture, 5 μl/well for a 12-well plate and 1 μl/well for a 96-well plate, and allowed to incubate for 2-6 hours depending on the number and type of cells present in the well. Cultures were then analyzed using a Tecan GENios Flourometric plate reader. The plate reader was set to read from the bottom at 535 nm excitation and 590 nm emission wavelengths, at optimal gain with an integration time of 80 μs and a lag time of 0 μs. The plate was orbitally shaken in the machine for 5 sec prior to reading.
Studies were also conducted with human T-ALL primary cells (FIGS. 3A-3B) and human T-ALL cells that were previously expanded in immunodeficient NSG mice (FIG. 3C).

[2] = biological target: IGF1R (Homo sapiens, UniProt P08069); conditions: read-out: Kd of insulin for IGF1R; cited from earlier work

Molecule	importance of the supplemental cytokine for T-ALL growth [1]	other results
IGF-1: ligand for a tyrosine kinase transmembrane receptor (CD221); recombinant supplement	may be dispensable	
insulin: ligand for a tyrosine kinase transmembrane receptor (CD220); component of the basal medium		Kd [2]: 200 to 400 nM
IL-7: ligand for the IL-7 receptor; recombinant cytokine supplement (protein, UniProt P13232 26-177, looked up) Interleukin-7: DCDIEGKDGKQYESVLMVSIDQLLDSMKEIGSNCLNNEFNFFKRHICDANKEGMFLFRAARKLRQFLKMNSTGDFDLHLLKVSEGTTILLNCTGQVKGRKPAALGEAQPTKSLEENKSLKEQKKLNDLCFLKRLLQEIKTCWNKILMGTKEH	the most important factor	
CP-751,871: an IGF-1 receptor (IGF1R) blocking antibody, specific for human IGF1R (antibody, chains of the INN, looked up) heavy: EVQLLESGGGLVQPGGSLRLSCTASGFTFSSYAMNWVRQAPGKGLEWVSAISGSGGTTFYADSVKGRFTISRDNSRTTLYLQMNSLRAEDTAVYYCAKDLGWSDSYYYYYGMDVWGQGTTVTVSSASTKGPSVFPLAPCSRSTSESTAALGCLVKDYFPEPVTVSWNSGALTSGVHTFPAVLQSSGLYSLSSVVTVPSSNFGTQTYTCNVDHKPSNTKVDKTVERKCCVECPPCPAPPVAGPSVFLFPPKPKDTLMISRTPEVTCVVVDVSHEDPEVQFNWYVDGVEVHNAKTKPREEQFNSTFRVVSVLTVVHQDWLNGKEYKCKVSNKGLPAPIEKTISKTKGQPREPQVYTLPPSREEMTKNQVSLTCLVKGFYPSDIAVEWESNGQPENNYKTTPPMLDSDGSFFLYSKLTVDKSRWQQGNVFSCSVMHEALHNHYTQKSLSLSPG light: DIQMTQFPSSLSASVGDRVTITCRASQGIRNDLGWYQQKPGKAPKRLIYAASRLHRGVPSRFSGSGSGTEFTLTISSLQPEDFATYYCLQHNSYPCSFGQGTKLEIKRTVAAPSVFIFPPSDEQLKSGTASVVCLLNNFYPREAKVQWKVDNALQSGNSQESVTEQDSKDSTYSLSSTLTLSKADYEKHKVYACEVTHQGLSSPVTKSFNRGEC		effect of IGF1R blocking antibody on cell growth ([1]; T-ALL on mouse MS5-DL1 feeders): significantly impaired cell growth
